Assay [1] addresses T1, full-length mouse His6-αE-catenin R551A (mouse, UniProt P26231 1-906, R551A).
T1 sequence (looked up): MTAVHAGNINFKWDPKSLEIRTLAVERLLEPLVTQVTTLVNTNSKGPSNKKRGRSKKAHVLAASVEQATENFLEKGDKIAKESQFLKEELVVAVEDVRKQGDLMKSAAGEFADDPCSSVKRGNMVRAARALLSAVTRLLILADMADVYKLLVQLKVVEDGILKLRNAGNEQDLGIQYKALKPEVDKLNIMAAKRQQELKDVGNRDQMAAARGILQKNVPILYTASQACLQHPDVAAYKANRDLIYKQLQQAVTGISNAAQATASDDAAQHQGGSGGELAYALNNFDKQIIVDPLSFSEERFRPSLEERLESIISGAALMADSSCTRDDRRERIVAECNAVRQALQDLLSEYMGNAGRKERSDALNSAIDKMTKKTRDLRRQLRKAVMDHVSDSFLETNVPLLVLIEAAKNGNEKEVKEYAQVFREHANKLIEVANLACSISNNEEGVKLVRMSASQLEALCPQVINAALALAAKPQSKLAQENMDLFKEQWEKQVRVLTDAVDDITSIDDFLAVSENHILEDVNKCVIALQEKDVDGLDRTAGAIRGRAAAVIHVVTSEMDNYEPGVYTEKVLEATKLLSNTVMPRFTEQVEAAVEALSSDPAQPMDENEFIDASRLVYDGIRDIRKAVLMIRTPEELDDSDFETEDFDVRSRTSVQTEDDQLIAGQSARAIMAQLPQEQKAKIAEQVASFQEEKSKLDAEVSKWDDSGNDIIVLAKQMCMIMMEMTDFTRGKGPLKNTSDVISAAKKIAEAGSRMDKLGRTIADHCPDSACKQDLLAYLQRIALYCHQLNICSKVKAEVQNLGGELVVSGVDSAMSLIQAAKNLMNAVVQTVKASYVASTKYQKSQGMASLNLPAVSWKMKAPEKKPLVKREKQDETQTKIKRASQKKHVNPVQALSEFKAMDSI
Put plainly: BLI. For orientation: Biolayer interferometry detects binding as a change in optical thickness at a sensor tip.

The target of assay [2] is T2, full-length mouse His6-αE-catenin (WT) (mouse, UniProt P26231 1-906).
T2 sequence (looked up): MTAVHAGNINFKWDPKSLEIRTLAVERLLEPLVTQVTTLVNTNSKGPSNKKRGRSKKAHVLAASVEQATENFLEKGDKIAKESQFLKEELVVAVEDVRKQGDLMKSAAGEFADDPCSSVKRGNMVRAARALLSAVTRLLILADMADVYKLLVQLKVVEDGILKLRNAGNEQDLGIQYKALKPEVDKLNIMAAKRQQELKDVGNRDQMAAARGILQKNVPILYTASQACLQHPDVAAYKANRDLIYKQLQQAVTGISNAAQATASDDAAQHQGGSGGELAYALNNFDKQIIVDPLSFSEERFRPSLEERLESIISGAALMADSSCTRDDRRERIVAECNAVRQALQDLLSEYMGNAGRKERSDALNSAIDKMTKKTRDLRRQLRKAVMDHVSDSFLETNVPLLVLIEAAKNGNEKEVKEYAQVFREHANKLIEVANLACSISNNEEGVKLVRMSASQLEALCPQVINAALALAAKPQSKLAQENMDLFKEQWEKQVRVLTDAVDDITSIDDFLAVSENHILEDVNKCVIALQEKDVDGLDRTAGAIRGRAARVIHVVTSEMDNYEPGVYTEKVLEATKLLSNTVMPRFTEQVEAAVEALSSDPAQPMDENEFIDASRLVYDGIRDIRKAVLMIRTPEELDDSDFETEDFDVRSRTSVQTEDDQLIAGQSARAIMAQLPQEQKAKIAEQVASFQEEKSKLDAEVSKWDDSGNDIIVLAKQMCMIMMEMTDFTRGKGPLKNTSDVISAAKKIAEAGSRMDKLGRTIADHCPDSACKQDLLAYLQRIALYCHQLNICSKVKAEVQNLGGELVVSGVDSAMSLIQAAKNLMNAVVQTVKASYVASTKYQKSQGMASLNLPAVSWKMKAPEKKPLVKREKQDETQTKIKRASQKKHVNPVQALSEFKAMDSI
Put plainly: BLI.

B1: constitutively active vinculin head domain (VHD, residues 1-252) (domain or fragment, human, UniProt P18206 1-252, looked up)
chain: MPVFHTRTIESILEPVAQQISHLVIMHEEGEVDGKAIPDLTAPVAAVQAAVSNLVRVGKETVQTTEDQILKRDMPPAFIKVENACTKLVQAAQMLQSDPYSVPARDYLIDGSRGILSGTSDLLLTFDEAEVRKIIRVCKGILEYLTVAEVVETMEDLVTYTKNLGPGMTKMAKMIDERQQELTHQEHRVMLVNSMNTVKELLPVLISAMKIFVTTKNSKNQGIEEALKNRNFTVEKMSAEINEIIRVLQLTS
In the case of B1, the Kd (in general, the equilibrium constant for the complex coming apart) was 140 nM in assay [1] and 1800 nM in assay [2].
